# B1: LINE1-mini (parent)
# chain: GGCAGAGCUCAACACAGCGUGGCAAAGUGGCUGUGGCUAGACUGCC
# Variants of: B1
# Assay: self-cleavage, relative activity (ratio to wild type); higher = more cleavage; in vitro, sequencing; the parent is a self-cleaving ribozyme
row,Variant,self-cleavage
1,A4C G22C,0.08
2,A4C G22U,0.52
3,A4C G22A,0.09
4,A4C G29U,0.45
5,A4C G29A,0.07
6,A4C G29C,0.24
7,C3U,0.48
8,C3G U20A,0.35
9,C3G U20C,0.41
10,C3G U20G,0.41
11,C3U C31G,0.04
12,C3U C31A,0.07
13,C3U C31U,0.1
14,C3G C37G,0.13
15,C3G C37U,0.5
16,C3G C37A,0.29
17,C3G C42A,0.28
18,C3G C42G,0.05
19,C3G C42U,0.31
20,C3G U9C,0.03
21,C3G U9G,0.3
22,C3G U9A,0.27
23,A4C A16G,0.09
24,A4C A16C,0.04

row,Variant,self-cleavage
1,A4C A16U,0.05
2,C3G C13A,0.48
3,C3G C13G,0.55
4,C3G C13U,0.37
5,C3G A25G,0.14
6,C3G A25U,0.47
7,C3G A25C,0.18
8,C3G C31G,0.07
9,C3G C31U,0.07
10,C3G C31A,0.15
11,C3G G36C,0.66
12,C3G G36A,0.74
13,C3G G36U,0.2
14,C3G C10G,0.04
15,C3G C10A,0.05
16,C3G C10U,0.19
17,C3U A25U,0.52
18,C3U A25C,0.52
19,C3U A25G,0.27
20,C3U G40C,0.07
21,C3U G40U,0.12
22,C3U G40A,0.12
23,C3U U20C,0.15
24,C3U U20A,0.28

row,Variant,self-cleavage
1,C3U U20G,0.28
2,C3U C15A,0.08
3,C3U C15G,0.08
4,C3U C15U,0.32
5,A4C A11U,0.04
6,A4C A11C,0.04
7,A4C A11G,0.04
8,A4C C10A,0.04
9,A4C C10G,0.03
10,A4C C10U,0.09
11,C3U A11C,0.06
12,C3U A11U,0.08
13,C3U A11G,0.03
14,C3G G21C,0.41
15,C3G G21A,1.1
16,C3G G21U,0.48
17,C3G G5U,0.11
18,C3G G5C,0.58
19,C3G G5A,0.68
20,C3G G44A,0.35
21,C3G G44U,1.21
22,C3G G44C,0.93
23,A4C C13A,0.15
24,A4C C13G,0.17

row,Variant,self-cleavage
1,A4C C13U,0.35
2,C3G C23U,0.81
3,C3G C23A,0.47
4,C3G C23G,0.2
5,C3U G22A,0.34
6,C3U G22U,0.82
7,C3U G22C,0.48
8,C3U G17C,0.18
9,C3U G17A,0.1
10,C3U G17U,0.12
11,C3U C46G,0.37
12,C3U C46A,0.18
13,C3U C46U,0.21
14,C3U G7U,0.11
15,C3U G7C,0.17
16,C3U G7A,0.26
17,A4C A41U,0.23
18,A4C A41C,0.12
19,A4C A41G,0.07
20,C3U C37G,0.05
21,C3U C37A,0.12
22,C3U C37U,0.14
23,A4C A14G,0.1
24,A4C A14C,0.1

row,Variant,self-cleavage
1,A4C A14U,0.22
2,C3U U38G,0.04
3,C3U U38A,0.19
4,C3U U38C,0.19
5,C3G G7A,0.49
6,C3G G7C,0.05
7,C3G G7U,0.22
8,C3U G21A,1.19
9,C3U G21C,0.47
10,C3U G21U,0.41
11,A4C G5C,0.08
12,A4C G5U,0.21
13,A4C G5A,0.12
14,C3G G19C,0.16
15,C3G G19A,0.59
16,C3G G19U,0.56
17,C3U G33U,0.1
18,C3U G33C,0.07
19,C3U G33A,0.13
20,C3U A39C,0.19
21,C3U A39U,0.38
22,C3U A39G,0.2
23,A4C C18U,0.05
24,A4C C18A,0.07

row,Variant,self-cleavage
1,A4C C18G,0.11
2,C3G U43G,0.21
3,C3G U43A,0.41
4,C3G U43C,0.14
5,C3U U34A,0.06
6,C3U U34C,0.07
7,C3U U34G,0.07
8,C3U A24U,0.73
9,C3U A24C,0.37
10,C3U A24G,0.24
11,C3U U43A,0.14
12,C3U U43C,0.09
13,C3U U43G,0.2
14,A4C A6G,0.37
15,A4C A6C,0.09
16,A4C A6U,0.11
17,C3G A39U,0.27
18,C3G A39C,0.14
19,C3G A39G,0.56
20,C3G C8A,0.52
21,C3G C8U,0.39
22,C3G C8G,0.08
23,A4C G30A,0.24
24,A4C G30C,0.07

row,Variant,self-cleavage
1,C3G U34G,0.08
2,C3G U34C,0.1
3,C3G U34A,0.08
4,A4C,0.19
5,A4C G21A,0.42
6,A4C G21C,0.18
7,A4C G21U,0.21
8,C3U A6U,0.38
9,C3U A6G,0.09
10,C3U A6C,0.5
11,C3U U32G,0.09
12,C3U U32A,0.07
13,C3U U32C,0.19
14,C3G A41U,0.29
15,C3G A41C,0.1
16,C3G A41G,0.09
17,A4C A26U,0.11
18,A4C A26G,0.15
19,A4C A26C,0.1
20,A4C A39C,0.07
21,A4C A39U,0.09
22,A4C A39G,0.9
23,C3U G44A,1.07
